Reference: patent US20190263889A1
Values joined by “and” are separate entries in the source; they are usually repeats but may differ in a detail not shown here. Equal entries are not always repeated.

Tests used:
[1] = biological target: CTLA-4Fc mutant protein M11 (human (murine residues substituted)); assay: ELISA; binder 10 ng/ml on coated target
[2] = biological target: CTLA-4Fc mutant protein M7 (human (murine residues substituted)); assay: ELISA; binder 10 ng/ml on coated target
[3] = biological target: CTLA-4Fc mutant protein M2 (human (murine residues substituted)); assay: ELISA; binder 10 ng/ml on coated target
[4] = biological target: CTLA-4Fc mutant protein M10 (human (murine residues substituted)); assay: ELISA; binder 10 ng/ml on coated target
[5] = biological target: CTLA-4Fc mutant protein M11 (human (murine residues substituted)); assay: ELISA; binder 10 ng/ml on coated target; remark: listed apart in the source
[6] = biological target: CTLA-4Fc mutant protein M1 (human (murine residues substituted)); assay: ELISA; binder 10 ng/ml on coated target
[7] = biological target: CTLA-4Fc mutant protein M5 (human (murine residues substituted)); assay: ELISA; binder 10 ng/ml on coated target
[8] = biological target: CTLA-4Fc mutant protein M6 (human (murine residues substituted)); assay: ELISA; binder 10 ng/ml on coated target
[9] = biological target: human IgG1-Fc control (human) [IgG part: P01857]; assay: ELISA; binder 10 ng/ml on coated target
mouse CTLA-4-Fc (mouse) [10] = biological target: mouse CTLA-4-Fc (mouse) (UniProt P09793); assay: ELISA; binder 10 ng/ml on coated target
[11] = biological target: CTLA-4Fc mutant protein M8 (human (murine residues substituted)); assay: ELISA; binder 10 ng/ml on coated target
[12] = biological target: wild type human CTLA-4Fc fusion protein (abatacept) (human); assay: ELISA; binder 10 ng/ml on coated target
[13] = biological target: CTLA-4Fc mutant protein M3 (human (murine residues substituted)); assay: ELISA; binder 10 ng/ml on coated target
[14] = biological target: CTLA-4Fc mutant protein M4 (human (murine residues substituted)); assay: ELISA; binder 10 ng/ml on coated target
[15] = biological target: CTLA-4Fc mutant protein M9 (human (murine residues substituted)); assay: ELISA; binder 10 ng/ml on coated target
[16] = biological target: CTLA-4Fc mutant protein M7 (human (murine residues substituted)); assay: ELISA; binder 1000 ng/ml on coated target
[17] = biological target: CTLA-4Fc mutant protein M2 (human (murine residues substituted)); assay: ELISA; binder 1000 ng/ml on coated target
[18] = biological target: CTLA-4Fc mutant protein M10 (human (murine residues substituted)); assay: ELISA; binder 1000 ng/ml on coated target
[19] = biological target: CTLA-4Fc mutant protein M11 (human (murine residues substituted)); assay: ELISA; binder 1000 ng/ml on coated target
[20] = biological target: CTLA-4Fc mutant protein M1 (human (murine residues substituted)); assay: ELISA; binder 1000 ng/ml on coated target
[21] = biological target: CTLA-4Fc mutant protein M5 (human (murine residues substituted)); assay: ELISA; binder 1000 ng/ml on coated target
[22] = biological target: CTLA-4Fc mutant protein M6 (human (murine residues substituted)); assay: ELISA; binder 1000 ng/ml on coated target
[23] = biological target: human IgG1-Fc control (human) [IgG part: P01857]; assay: ELISA; binder 1000 ng/ml on coated target
mouse CTLA-4-Fc (mouse) [24] = biological target: mouse CTLA-4-Fc (mouse) (UniProt P09793); assay: ELISA; binder 1000 ng/ml on coated target
[25] = biological target: CTLA-4Fc mutant protein M8 (human (murine residues substituted)); assay: ELISA; binder 1000 ng/ml on coated target
[26] = biological target: wild type human CTLA-4Fc fusion protein (abatacept) (human); assay: ELISA; binder 1000 ng/ml on coated target
[27] = biological target: CTLA-4Fc mutant protein M3 (human (murine residues substituted)); assay: ELISA; binder 1000 ng/ml on coated target
[28] = biological target: CTLA-4Fc mutant protein M4 (human (murine residues substituted)); assay: ELISA; binder 1000 ng/ml on coated target
[29] = biological target: CTLA-4Fc mutant protein M9 (human (murine residues substituted)); assay: ELISA; binder 1000 ng/ml on coated target
[30] = biological target: CTLA-4Fc mutant protein M7 (human (murine residues substituted)); assay: ELISA; binder 100 ng/ml on coated target
[31] = biological target: CTLA-4Fc mutant protein M2 (human (murine residues substituted)); assay: ELISA; binder 100 ng/ml on coated target
[32] = biological target: CTLA-4Fc mutant protein M10 (human (murine residues substituted)); assay: ELISA; binder 100 ng/ml on coated target
[33] = biological target: CTLA-4Fc mutant protein M11 (human (murine residues substituted)); assay: ELISA; binder 100 ng/ml on coated target
[34] = biological target: CTLA-4Fc mutant protein M1 (human (murine residues substituted)); assay: ELISA; binder 100 ng/ml on coated target
[35] = biological target: CTLA-4Fc mutant protein M5 (human (murine residues substituted)); assay: ELISA; binder 100 ng/ml on coated target
[36] = biological target: CTLA-4Fc mutant protein M6 (human (murine residues substituted)); assay: ELISA; binder 100 ng/ml on coated target
[37] = biological target: human IgG1-Fc control (human) [IgG part: P01857]; assay: ELISA; binder 100 ng/ml on coated target
mouse CTLA-4-Fc (mouse) [38] = biological target: mouse CTLA-4-Fc (mouse) (UniProt P09793); assay: ELISA; binder 100 ng/ml on coated target
[39] = biological target: CTLA-4Fc mutant protein M8 (human (murine residues substituted)); assay: ELISA; binder 100 ng/ml on coated target
[40] = biological target: wild type human CTLA-4Fc fusion protein (abatacept) (human); assay: ELISA; binder 100 ng/ml on coated target
[41] = biological target: CTLA-4Fc mutant protein M3 (human (murine residues substituted)); assay: ELISA; binder 100 ng/ml on coated target
[42] = biological target: CTLA-4Fc mutant protein M4 (human (murine residues substituted)); assay: ELISA; binder 100 ng/ml on coated target
[43] = biological target: CTLA-4Fc mutant protein M9 (human (murine residues substituted)); assay: ELISA; binder 100 ng/ml on coated target

Sequence of CTLA-4Fc mutant protein M2 (human (murine residues substituted)) (chain, as listed by the source mutant): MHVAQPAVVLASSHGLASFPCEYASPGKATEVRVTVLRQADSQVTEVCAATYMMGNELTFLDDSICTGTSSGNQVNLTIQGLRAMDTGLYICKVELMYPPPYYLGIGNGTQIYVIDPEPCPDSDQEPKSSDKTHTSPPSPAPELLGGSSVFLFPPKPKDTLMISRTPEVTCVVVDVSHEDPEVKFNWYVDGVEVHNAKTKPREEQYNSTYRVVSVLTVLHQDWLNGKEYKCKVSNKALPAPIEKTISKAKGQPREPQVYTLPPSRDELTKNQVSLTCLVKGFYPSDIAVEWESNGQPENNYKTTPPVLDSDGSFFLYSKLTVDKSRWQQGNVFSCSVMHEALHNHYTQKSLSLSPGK
Sequence of wild type human CTLA-4Fc fusion protein (abatacept) (human) (chain, as listed by the source limits assumed): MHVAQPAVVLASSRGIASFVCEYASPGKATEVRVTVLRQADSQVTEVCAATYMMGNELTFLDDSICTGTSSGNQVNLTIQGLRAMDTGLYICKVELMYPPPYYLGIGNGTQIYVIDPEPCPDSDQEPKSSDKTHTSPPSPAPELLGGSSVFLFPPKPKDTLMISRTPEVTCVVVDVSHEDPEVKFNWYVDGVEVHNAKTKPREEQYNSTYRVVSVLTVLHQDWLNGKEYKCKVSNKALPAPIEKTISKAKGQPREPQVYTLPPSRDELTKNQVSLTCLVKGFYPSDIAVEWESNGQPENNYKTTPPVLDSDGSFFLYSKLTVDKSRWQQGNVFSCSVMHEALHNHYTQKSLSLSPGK
Sequence of CTLA-4Fc mutant protein M1 (human (murine residues substituted)) (chain, as listed by the source mutant): as the sequence (chain, as listed by the source limits assumed) above, with M1I, H2Q, A4T, A7S counted along it
Sequence of CTLA-4Fc mutant protein M8 (human (murine residues substituted)) (chain, as listed by the source mutant): as the sequence (chain, as listed by the source limits assumed) above, with S70F, S71N, G72E, N73S, Q74R counted along it
Sequence of CTLA-4Fc mutant protein M3 (human (murine residues substituted)) (chain, as listed by the source mutant): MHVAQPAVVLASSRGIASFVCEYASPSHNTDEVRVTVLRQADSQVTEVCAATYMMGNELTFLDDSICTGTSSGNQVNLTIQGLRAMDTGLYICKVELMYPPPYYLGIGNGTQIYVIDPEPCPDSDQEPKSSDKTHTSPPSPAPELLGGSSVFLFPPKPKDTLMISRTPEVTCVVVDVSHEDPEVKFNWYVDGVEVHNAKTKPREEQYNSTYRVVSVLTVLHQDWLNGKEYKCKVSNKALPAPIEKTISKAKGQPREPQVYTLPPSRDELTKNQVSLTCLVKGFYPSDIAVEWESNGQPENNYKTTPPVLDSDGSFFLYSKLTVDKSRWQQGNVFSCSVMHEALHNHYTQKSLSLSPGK
Sequence of CTLA-4Fc mutant protein M6 (human (murine residues substituted)) (chain, as listed by the source mutant): as the sequence (chain, as listed by the source limits assumed) above, with A50T counted along it
Sequence of CTLA-4Fc mutant protein M9 (human (murine residues substituted)) (chain, as listed by the source mutant): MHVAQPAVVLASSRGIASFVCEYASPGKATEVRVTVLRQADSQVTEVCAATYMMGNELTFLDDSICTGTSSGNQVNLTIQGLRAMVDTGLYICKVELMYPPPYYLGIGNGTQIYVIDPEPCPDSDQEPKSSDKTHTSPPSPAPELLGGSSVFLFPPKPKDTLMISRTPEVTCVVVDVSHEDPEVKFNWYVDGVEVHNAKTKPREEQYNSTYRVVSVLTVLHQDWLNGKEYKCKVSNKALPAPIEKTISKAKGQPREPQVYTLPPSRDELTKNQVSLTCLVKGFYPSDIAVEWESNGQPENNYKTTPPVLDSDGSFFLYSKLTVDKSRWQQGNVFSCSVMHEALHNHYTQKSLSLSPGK
Sequence of CTLA-4Fc mutant protein M11 (human (murine residues substituted)) (chain, as listed by the source mutant): as the sequence (chain, as listed by the source limits assumed) above, with Y103F, L104V, I106M counted along it
Sequence of mouse CTLA-4-Fc (mouse) (P09793 36-161 limits assumed): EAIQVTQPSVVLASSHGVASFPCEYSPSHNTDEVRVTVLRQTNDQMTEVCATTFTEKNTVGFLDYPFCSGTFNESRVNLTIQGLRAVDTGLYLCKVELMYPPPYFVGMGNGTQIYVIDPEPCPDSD
Sequence of CTLA-4Fc mutant protein M4 (human (murine residues substituted)) (chain, as listed by the source mutant): as the sequence (chain, as listed by the source limits assumed) above, with Q39T, A40N, S42Q, Q43M counted along it
Sequence of CTLA-4Fc mutant protein M5 (human (murine residues substituted)) (chain, as listed by the source mutant): as the sequence (chain, as listed by the source limits assumed) above, with Y52F, M53T, M54E, G55K, E57T, L58V, T59G counted along it
Sequence of CTLA-4Fc mutant protein M7 (human (murine residues substituted)) (chain, as listed by the source mutant): as the sequence (chain, as listed by the source limits assumed) above, with D63Y, S64P, I65F, T67S counted along it
Sequence of CTLA-4Fc mutant protein M10 (human (murine residues substituted)) (chain, as listed by the source mutant): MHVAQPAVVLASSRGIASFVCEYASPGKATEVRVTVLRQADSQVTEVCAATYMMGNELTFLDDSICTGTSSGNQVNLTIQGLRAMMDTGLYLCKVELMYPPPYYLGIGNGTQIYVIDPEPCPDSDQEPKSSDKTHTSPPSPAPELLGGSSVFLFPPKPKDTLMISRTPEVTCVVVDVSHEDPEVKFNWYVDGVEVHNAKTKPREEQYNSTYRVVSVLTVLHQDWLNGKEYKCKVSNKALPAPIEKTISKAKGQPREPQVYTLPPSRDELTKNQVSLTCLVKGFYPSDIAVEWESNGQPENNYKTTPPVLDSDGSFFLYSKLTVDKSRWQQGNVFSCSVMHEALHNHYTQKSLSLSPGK

Substance: chimeric L3D10 anti-human CTLA-4 antibody
- OD450 [1]: 0.202 OD450 and 0.203 OD450
- OD450 [2]: 0.837 OD450 and 0.884 OD450
- OD450 [3]: 0.469 OD450 and 0.333 OD450
- OD450 [4]: 0.157 OD450
- OD450 [5]: 0.19 OD450 and 0.194 OD450
- OD450 [6]: 2.69 OD450 and 2.78 OD450
- OD450 [7]: 1.85 OD450 and 1.8 OD450
- OD450 [8]: 1.24 OD450 and 1.88 OD450
- OD450 [9]: 0.201 OD450 and 0.182 OD450
- OD450 (mouse CTLA-4-Fc (mouse) [10]): 0.201 OD450 and 0.18 OD450
- OD450 [11]: 1.27 OD450 and 1.45 OD450
- OD450 [12]: 1.71 OD450 and 1.8 OD450
- OD450 [13]: 0.623 OD450 and 0.593 OD450
- OD450 [14]: 0.817 OD450 and 0.563 OD450
- OD450 [15]: 0.158 OD450 and 0.213 OD450
- OD450 [16]: 3.3 OD450 and 3.35 OD450
- OD450 [17]: 2.83 OD450 and 2.75 OD450
- OD450 [18]: 0.945 OD450 and 0.941 OD450
- OD450 [19]: 2.89 OD450 and 2.91 OD450
- OD450 [20]: 3.51 OD450
- OD450 [21]: 3.41 OD450 and 3.54 OD450
- OD450 [22]: 3.28 OD450 and 3.32 OD450
- OD450 [23]: 1.39 OD450 and 1.47 OD450
- OD450 (mouse CTLA-4-Fc (mouse) [24]): 0.942 OD450 and 0.94 OD450
- OD450 [25]: 3.35 OD450 and 3.44 OD450
- OD450 [26]: 3.57 OD450 and 3.67 OD450
- OD450 [27]: 3.33 OD450 and 3.3 OD450
- OD450 [28]: 3.08 OD450 and 3.15 OD450
- OD450 [29]: 1.12 OD450 and 1.18 OD450
- OD450 [30]: 2.67 OD450 and 2.88 OD450
- OD450 [31]: 1.31 OD450 and 1.37 OD450
- OD450 [32]: 0.26 OD450 and 0.272 OD450
- OD450 [33]: 0.752 OD450 and 0.746 OD450
- OD450 [34]: 3.19 OD450 and 3.57 OD450
- OD450 [35]: 3.25 OD450 and 3.32 OD450
- OD450 [36]: 3.03 OD450
- OD450 [37]: 0.315 OD450 and 0.326 OD450
- OD450 (mouse CTLA-4-Fc (mouse) [38]): 0.303 OD450 and 0.314 OD450
- OD450 [39]: 3.02 OD450 and 3.16 OD450
- OD450 [40]: 3.32 OD450 and 3.46 OD450
- OD450 [41]: 2.24 OD450 and 2.54 OD450
- OD450 [42]: 2.23 OD450 and 2.36 OD450
- OD450 [43]: 0.419 OD450 and 0.346 OD450
